# Assay results as given in US20100247515A1 (DOMANTIS, published 2010).
# Changes are numbered by the printed parent chain.
# T1: TNFR1 on MRC-5 fibroblasts (UniProt P19438 30-455, limits assumed)
# T1 sequence (looked up): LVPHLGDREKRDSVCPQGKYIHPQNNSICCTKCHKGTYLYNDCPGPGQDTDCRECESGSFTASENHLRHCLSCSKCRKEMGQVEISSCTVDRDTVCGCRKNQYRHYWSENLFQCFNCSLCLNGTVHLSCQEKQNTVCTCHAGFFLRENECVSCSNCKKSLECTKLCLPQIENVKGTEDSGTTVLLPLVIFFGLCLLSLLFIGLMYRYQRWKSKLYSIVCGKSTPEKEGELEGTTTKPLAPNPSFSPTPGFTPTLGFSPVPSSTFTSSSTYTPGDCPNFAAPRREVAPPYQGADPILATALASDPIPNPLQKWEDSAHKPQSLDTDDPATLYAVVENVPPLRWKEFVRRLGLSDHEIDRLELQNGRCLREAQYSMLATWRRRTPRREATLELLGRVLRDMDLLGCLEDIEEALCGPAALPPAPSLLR
# B1: DOM1h-131-203 (other)
# VH: EVQLWESGGGLVQPGGSLRLSCAASGFTFAHETMVWVRQAPGKGLEWVSHIPPDGQDPFYADSVKGRFTISRDNSKNTLYLQMNSLRAEDTAVYYCALLPKRGPWIDYWGQGTLVTVSS
# B2: DOM1h-131-204 (other)
# VH: B1 VH with W5S, K101N, I106F
# Target: T1, TNFR1 on MRC-5 fibroblasts
# Assay: cell-based or functional assay
row,Binder,"ND50, MRC-5 cell-based assay [nM]"
1,B1,2.28
2,B2,1.89
